For this assay, the target named is HLA-C1 expressed in the tumor cell membrane (HLA class I on Panc0203 / HPAC tumor cells) (human). Kind of assay: flow cytometry on Panc02.03 cells, PE-conjugated anti-Fc secondary staining. (In flow cytometry, cells or beads pass a laser one at a time.)

As to “fusion protein encompassing the extracellular domain of KIR2DL2 linked to the Fc portion of an antibody (KIR2DL2-Fc) (from UniProt P43627 22-245) (Fc fusion)”, the percent of cells bound is > 60%.
